According to patent publication US20130150301A1 (KAI PHARMACEUTICALS, published 2013):
Ends that are not written are not given here.

target: T1, human calcium-sensing receptor (CaSR) (human, UniProt P41180 20-1078); assay: cell-based or functional assay
T1 sequence (looked up): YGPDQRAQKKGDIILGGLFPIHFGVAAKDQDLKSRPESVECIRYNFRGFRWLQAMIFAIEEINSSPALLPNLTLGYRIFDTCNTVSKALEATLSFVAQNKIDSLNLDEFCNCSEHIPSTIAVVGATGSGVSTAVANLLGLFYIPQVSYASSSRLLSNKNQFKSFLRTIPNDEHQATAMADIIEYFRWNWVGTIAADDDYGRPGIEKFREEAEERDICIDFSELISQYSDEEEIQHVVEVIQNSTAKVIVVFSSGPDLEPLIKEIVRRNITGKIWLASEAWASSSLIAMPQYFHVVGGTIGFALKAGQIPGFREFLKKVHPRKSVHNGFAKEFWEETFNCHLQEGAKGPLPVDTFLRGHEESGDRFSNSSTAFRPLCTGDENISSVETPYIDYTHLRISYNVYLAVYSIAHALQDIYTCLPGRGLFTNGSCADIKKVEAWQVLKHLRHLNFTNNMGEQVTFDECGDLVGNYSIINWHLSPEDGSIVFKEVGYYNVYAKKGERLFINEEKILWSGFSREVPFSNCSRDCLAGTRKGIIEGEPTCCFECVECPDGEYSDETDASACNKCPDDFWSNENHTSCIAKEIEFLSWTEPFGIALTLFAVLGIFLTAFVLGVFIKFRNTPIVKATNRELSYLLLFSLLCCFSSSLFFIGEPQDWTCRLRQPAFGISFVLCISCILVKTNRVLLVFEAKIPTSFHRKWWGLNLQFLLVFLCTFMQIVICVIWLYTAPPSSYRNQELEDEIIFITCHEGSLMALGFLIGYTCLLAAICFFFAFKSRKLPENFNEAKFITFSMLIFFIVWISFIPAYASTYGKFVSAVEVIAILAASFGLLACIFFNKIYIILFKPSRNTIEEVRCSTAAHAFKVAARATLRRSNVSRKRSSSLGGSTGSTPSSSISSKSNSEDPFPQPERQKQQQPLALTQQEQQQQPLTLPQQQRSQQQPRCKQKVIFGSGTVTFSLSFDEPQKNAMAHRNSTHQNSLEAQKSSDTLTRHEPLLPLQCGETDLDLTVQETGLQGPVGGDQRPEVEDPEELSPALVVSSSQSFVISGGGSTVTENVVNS

Binder	fold decrease in potency against Ac-carrrar-NH2 (SEQ ID NO:26) [fold]	fold difference in potency against the CaSR, against Ac-crrrrrr-NH2 (SEQ ID NO:6) [fold]	fold difference in potency against Ac-carrrar-NH2 (SEQ ID NO:26) [fold]	fold loss in in vitro potency against Ac-crrrrrr-NH2 (SEQ ID NO:6), human CaSR assay in HEK 293 cells [fold]	shift in potency (HEK-293 in vitro cell assay), 4 against 5 arginine subunits [fold]	fold reduction in potency against Ac-carrrar-NH2 (SEQ ID NO:26) [fold]
XAXXXAX (N-terminal acetyl; C-terminal amide; D-Cys 1, L-Ala 2 and 6, D-Arg 3, 4, 5 and 7) [Ac-cArrrAr-NH2 (SEQ ID NO: 43)]	> 600	> 2000				
CXRXRXR (N-terminal acetyl; C-terminal amide; L-Cys 1, D-Ala 2, L-Arg 3, D-Arg 4, L-Arg 5, D-Ala 6, L-Arg 7) [Ac-CaRrRaR-NH2 (SEQ ID NO: 44)]		10	< 4			
XXXXXXX (HELM PEPTIDE1{[ac].[dC].[dA].[dR].[dR].[dR].[dR].[dR].[am]}$$$$V2.0; SMILES CC(=O)N[C@H](CS)C(=O)N[C@H](C)C(=O)N[C@H](CCCNC(=N)N)C(=O)N[C@H](CCCNC(=N)N)C(=O)N[C@H](CCCNC(=N)N)C(=O)N[C@H](CCCNC(=N)N)C(=O)N[C@H](CCCNC(=N)N)C(N)=O) [Ac-carrrrr-NH2 (SEQ ID NO: 8)]				~2		
XXXXXXX (HELM PEPTIDE1{[ac].[dC].[dR].[dA].[dR].[dR].[dR].[dR].[am]}$$$$V2.0; SMILES CC(=O)N[C@H](CS)C(=O)N[C@H](CCCNC(=N)N)C(=O)N[C@H](C)C(=O)N[C@H](CCCNC(=N)N)C(=O)N[C@H](CCCNC(=N)N)C(=O)N[C@H](CCCNC(=N)N)C(=O)N[C@H](CCCNC(=N)N)C(N)=O) [Ac-crarrrr-NH2 (SEQ ID NO: 9)]				~2		
XXXXXXX (HELM PEPTIDE1{[ac].[dC].[dR].[dR].[dA].[dR].[dR].[dR].[am]}$$$$V2.0; SMILES CC(=O)N[C@H](CS)C(=O)N[C@H](CCCNC(=N)N)C(=O)N[C@H](CCCNC(=N)N)C(=O)N[C@H](C)C(=O)N[C@H](CCCNC(=N)N)C(=O)N[C@H](CCCNC(=N)N)C(=O)N[C@H](CCCNC(=N)N)C(N)=O) [Ac-crrarrr-NH2 (SEQ ID NO: 10)]				~2		
XXXXXXX (HELM PEPTIDE1{[ac].[dC].[dR].[dR].[dR].[dR].[dR].[dA].[am]}$$$$V2.0; SMILES CC(=O)N[C@H](CS)C(=O)N[C@H](CCCNC(=N)N)C(=O)N[C@H](CCCNC(=N)N)C(=O)N[C@H](CCCNC(=N)N)C(=O)N[C@H](CCCNC(=N)N)C(=O)N[C@H](CCCNC(=N)N)C(=O)N[C@H](C)C(N)=O) [Ac-crrrrra-NH2 (SEQ ID NO: 13)]				~2		
XXXXX (N-terminal acetyl; C-terminal amide; all D-residues) [Ac-crrrr-NH2 (SEQ ID NO: 4)]					> 10	
XXXXXXX (N-terminal acetyl; C-terminal amide; all D-residues) [Ac-carrrar-NH2 (SEQ ID NO: 26)]		~3				
XGXXXGX (N-terminal acetyl; C-terminal amide; D-Cys 1, Gly 2 and 6, D-Arg 3, 4, 5 and 7) [Ac-cGrrrGr-NH2 (SEQ ID NO: 42)]						< 8

target: T1, human calcium-sensing receptor (CaSR); assay: cell-based or functional assay; remark: another data set of the same source

Binder	EC50 (IP1 production in HEK293 cells that express the human CaSR) [µM]
conjugate of SEQ ID NO: 45 (CHDAPIGYD) and SEQ ID NO: 47 (Ac-CYGRKKRRQRRR-NH2) (not fully specified; cysteine pairing not given here; also: further groups not given here) peptide 1: CHDAPIGYD peptide 2: Ac-CYGRKKRRQRRR-NH2	21
XXXXXXXXXXXX (N-terminal acetyl; C-terminal amide; all D-residues (glycine printed in lower case)) [Ac-cygrkkrrqrrr-NH2 (SEQ ID NO: 50)]	2
XXXXXXX (N-terminal acetyl; C-terminal amide; all seven residues D; D-Cys 1 conjugated via a disulfide linkage to an L-Cys residue (C)) [Ac-c(C)arrrar-NH2 (SEQ ID NO: 3)]	10
conjugate of SEQ ID NO: 46 (CPDYHDAGI) and SEQ ID NO: 47 (Ac-CYGRKKRRQRRR-NH2) (not fully specified; cysteine pairing not given here) peptide 1: CPDYHDAGI peptide 2: Ac-CYGRKKRRQRRR-NH2	21
XXXXXXXX (acetylated beta-alanine (Ac-bAla) at the N-terminus; C-terminal amide; D-Cys and six D-Arg) [Ac-bAla-crrrrrr-NH2 (SEQ ID NO: 30)]	1
XXXXXXX (not fully specified; N-terminal acetyl; C-terminal amide; all D-residues; oxidized glutathione (GS) attached to the side chain of D-Cys 1) [Ac-c(GS)rrrrrr-NH2 (SEQ ID NO: 53)]	7.8
XXXXXXX (N-terminal acetyl; C-terminal amide; all D-residues; N-acetylated L-Cys (Ac-C) attached to the side chain of D-Cys 1) [Ac-c(Ac-C)arrrar-NH2 (SEQ ID NO: 55)]	21
XXXXXXX (N-terminal acetyl; C-terminal amide; all D-residues; mercaptopropionic acid (Mpa) attached to the side chain of D-Cys 1) [Ac-c(Mpa)arrrar-NH2 (SEQ ID NO: 56)]	21
XXXXXXX (N-terminal acetyl; C-terminal amide; all D-residues; L-Cys carrying a 5 kDa polyethylene glycol (PEG5-C) attached to the side chain of D-Cys 1) [Ac-c(PEG5-C)rrrrrr-NH2 (SEQ ID NO: 58)]	0.58
XXXXXXX (not fully specified; N-terminal acetyl; C-terminal amide; L-Cys 1 conjugated via a disulfide linkage to an L-Cys residue (C); residues 2-7 D) [Ac-C(C)arrrar-NH2 (SEQ ID NO: 34)]	2.5
XXXXXXX (no N-terminal cap; C-terminal amide; all D-residues; L-Cys (C) attached to the side chain of D-Cys 1) [c(C)arrrar-NH2 (SEQ ID NO: 60)]	3.1
XXXXXXXX (acetylated beta-alanine (Ac-bAla) at the N-terminus; C-terminal amide; carrrar all D; L-Cys (C) attached to the side chain of the D-Cys) [Ac-bAla-c(C)arrrar-NH2 (SEQ ID NO: 61)]	2.6
Ac-CYGRKKRRQRRR-NH2 [Ac-CYGRKKRRQRRR-NH2 (SEQ ID NO: 47)]	4.5
XAXXXAX (N-terminal acetyl; C-terminal amide; D-Cys 1, L-Ala 2 and 6, D-Arg 3, 4, 5 and 7) [Ac-cArrrAr-NH2 (SEQ ID NO: 43)]	> 1000
CXRXRXR (N-terminal acetyl; C-terminal amide; L-Cys 1, D-Ala 2, L-Arg 3, D-Arg 4, L-Arg 5, D-Ala 6, L-Arg 7) [Ac-CaRrRaR-NH2 (SEQ ID NO: 44)]	5.6
XXXXXXX (N-terminal acetyl; free C-terminal acid (-OH); all D-residues) [Ac-carrrar-OH (SEQ ID NO: 74)]	31
Ac-YGRKKRRQRRR-NH2 [Ac-YGRKKRRQRRR-NH2 (SEQ ID NO: 48)]	16
Ac-CARRRAR-NH2 [Ac-CARRRAR-NH2 (SEQ ID NO: 75)]	58
XXXXXXXXXX (HELM PEPTIDE1{[ac].[dC].[dA].[dA].[dA].[dR].[dR].[dR].[dR].[dR].[dR].[am]}$$$$V2.0; SMILES CC(=O)N[C@H](CS)C(=O)N[C@H](C)C(=O)N[C@H](C)C(=O)N[C@H](C)C(=O)N[C@H](CCCNC(=N)N)C(=O)N[C@H](CCCNC(=N)N)C(=O)N[C@H](CCCNC(=N)N)C(=O)N[C@H](CCCNC(=N)N)C(=O)N[C@H](CCCNC(=N)N)C(=O)N[C@H](CCCNC(=N)N)C(N)=O) [Ac-caaarrrrrr-NH2 (SEQ ID NO: 77)]	4.6
XXXXXXX (no N-terminal cap; C-terminal amide; all D-residues) [crrrrrr-NH2 (SEQ ID NO: 80)]	1.1
XXXXXXX (N-terminal acetyl; C-terminal amide; D-homocysteine (dHcy) at position 1; D-Arg 2-7) [Ac-dHcy rrrrrr-NH2 (SEQ ID NO: 32)]	2
XXXXXXX (N-terminal acetyl; C-terminal amide; all D-residues; benzoyl attached to the side chain of D-Cys 1) [Ac-c(Benzoyl)rrrrrr-NH2 (SEQ ID NO: 81)]	3.6
XXXXXXX (N-terminal acetyl; C-terminal amide; all D-residues; acetyl attached to the side chain of D-Cys 1) [Ac-c(acetyl)rrrrrr-NH2 (SEQ ID NO: 82)]	4.1
XXXXX (N-terminal acetyl; C-terminal amide; all D-residues) [Ac-crrrr-NH2 (SEQ ID NO: 4)]	16
